Measurements as given in article doi:10.1101/2023.06.26.546597 (bioRxiv, 2023).

Target: the molecule itself
Experiment: crystal structure

B1: YisK with C-terminal histidine tag (enzyme, B. subtilis 168, UniProt O06724 1-301, looked up)
chain: MKFATGELYNRMFVGLIIDDEKIMDLQKAEKKLFELETIPGSLIECIAEGDKFVAHARQLAEWAKKPNDELGSFMYSLSEVKLHAPIPKPSKNIICIGKNYRDHAIEMGSEADIPEHPMVFTKSPVTVTGHGDIVKSHEEVTSQLDYEGELAVVIGKSGTRISKEDAYDHVFGYTIVNDITARDLQKRHKQFFIGKSLDTTCPMGPVLVHKSSIQEPERLKVETRVNGELRQSGSASDMIFSIPELIETLSKGMTLEAGDIIATGTPSGVGKGFTPPKFLRSGDKIDITIDPIGTLSNQIG
  binding result: binds
